For the series the following is noted: Equus caballus; pH 7; 10 °C; GdnHCl; Fluorescence; Imidazole 50 mM.

Where “and” joins values, the source holds several entries; their conditions need not be identical. Identical values can stand only once.

Chain of Cytochrome c wild type, P00004 (P00004 whole entry): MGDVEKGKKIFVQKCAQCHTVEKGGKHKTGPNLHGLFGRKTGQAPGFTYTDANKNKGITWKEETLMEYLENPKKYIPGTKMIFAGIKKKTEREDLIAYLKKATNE

As to Cytochrome c wild type, P00004, the denaturant m value stood at 2.7 kcal/mol/M; the unfolding free energy was 8.1 kcal/mol and 7.8 kcal/mol.

(Values after FireProtDB (doi:10.1021/bi982209j).)
